This note sets out measurements from paper PMC7596504 (2020).

As usually defined, the Kd is the free concentration of one partner at which half of the binding sites on the other are occupied at equilibrium, for simple one-to-one binding. A low value points to higher affinity.

This assay addresses T1, MORC4 ATPaseCW cassette (aa 29-486) (human, UniProt Q8TE76 29-486).
T1 chain: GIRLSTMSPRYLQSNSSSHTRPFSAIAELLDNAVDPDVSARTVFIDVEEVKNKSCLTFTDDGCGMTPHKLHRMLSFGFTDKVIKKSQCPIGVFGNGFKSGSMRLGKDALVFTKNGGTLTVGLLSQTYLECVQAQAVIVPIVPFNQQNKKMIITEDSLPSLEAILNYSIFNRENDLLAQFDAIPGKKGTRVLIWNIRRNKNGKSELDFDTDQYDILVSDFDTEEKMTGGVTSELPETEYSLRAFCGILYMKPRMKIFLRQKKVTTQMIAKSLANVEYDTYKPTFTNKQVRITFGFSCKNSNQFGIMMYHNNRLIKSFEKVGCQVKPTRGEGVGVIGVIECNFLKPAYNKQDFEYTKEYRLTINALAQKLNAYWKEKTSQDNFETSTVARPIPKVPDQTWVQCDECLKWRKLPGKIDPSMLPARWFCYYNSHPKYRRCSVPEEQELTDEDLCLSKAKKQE

B1: unmodified histone H3 peptide (aa 1-12 of H3) (peptide)
peptide: ARTKQTARKSTG
With B1, the Kd was found to be 12 µM.
